Source: US9664676B2, “RNA sequences that induce fluorescence of small molecule fluorophores” (Cornell University, priority 2013, dated 2017)

Experiments:
HEK293T cells = test: Flow cytometry of HEK293T cells expressing 5S rRNA-aptamer fusions with DFHBI-1T; type: cell-based; details: 5S fusions, HEK293T, 40 μM DFHBI-1T
Description: FIG. 24 illustrates the quantification of the flow cytometry analysis of aptamers expression in mammalian cells. To compare specific aptamers' brightness in mammalian cells, HEK293T cells were transfected with two plasmids: one expressing aptamer (with or without tRNA) fused to 5S rRNA and another expressing mCherry fluorescent protein. Cells were then treated with 40 μM DFHBI-1T and analyzed on FACSAria III instrument in two channels: green (ex=488 nm; em=525±50 nm) and red (ex=561 nm and em=610±20). For quantification, mean fluorescent signal of the non-negative population was calculated and then mean fluorescent signal of the negative population was subtracted from it to assess specific, not background fluorescent signal. Finally, this number was multiplied by the percentage of the non-negative population to provide the total fluorescent signal of the non-negative population. These numbers are plotted on the bar graph above. Where indicated, cells were also pre-treated with 5 mM MgSO4. Error bar indicates robust SD calculated by FlowJo program, used for data analysis.
Imaging 5S-tBroccoli and 5S-t-tdBroccoli: Plasmids were transfected into HEK293T cell using FuGENE HD reagent (Promega) following manufacture's protocol. Cell imaging was carried out as previously described for 5S-Spinach (Paige et al., “RNA Mimics of Green Fluorescent Protein,” Science 333(6042): 642-6 (2011), which is hereby incorporated by reference in its entirety) with DFHBI-1T instead of DFHBI. […]
Flow cytometry was used to quantify average brightness of tRNA. Transfected cells were analyzed in two channels: green (ex=488 nm; em=525±50 nm) and red (ex=561 nm; em=610±20). […] As evidenced from FIG. 14A, 5S-tBroccoli and 5S-tdBroccoli are clearly detectable in the green fluorescence channel and this specific signal appears only upon cells treatment with DFHBI-1T (FIG. 23).

[1] = In-gel imaging of tBroccoli and tdBroccoli (DFHBI-1T / SYBR Gold staining); type: biochemical; details: gel band intensity, normalized to molecular weight
Description: In-Gel Imaging of Spinach-Containing RNAs: Total bacterial RNA was purified using Trizol LS reagent (Life Technologies) following the manufacturer's protocol. Typically, 200-500 ng of total RNA or 50-100 ng of in vitro transcribed RNA was loaded into a well of precast 6% TBE-Urea Gel (Life Technologies) and ran at 270-300 V in 1×TBE buffer. RiboRuler Low Range RNA Ladder (Thermo Scientific) was used as band size standard.
After the gel was run to completion, the gel was washed 3×5 min with water and then stained for 30 min in 10 μM DFHBI or DFHBI-1T in buffer containing 40 mM HEPES pH 7.4, 100 mM KCl, 1 mM MgCl2. Then gel was imaged using a ChemiDoc MP with 470/30 nm excitation and 532/28 nm emission. Next, to see all the RNA in the sample, the gel was again washed 3×5 min with water followed by staining for 30 min with SYBR Gold (or Green) dye (Life Technologies) diluted 1/10000 in TBE buffer. Then gel was imaged under the same instrument using preset SYBR Gold (or Green) channel (302 nm excitation and 590/110 nm emission). Gel bands intensities were quantified in Image Lab 5.0 software (Bio-Rad). The bacterial 5S rRNA band was used for loading normalization.

E. coli = test: Whole-cell fluorescence measurements of E. coli expressing Spinach or Spinach2; type: cell-based, Escherichia coli
Description: Cloning Spinach2 for Expression in E. coli: Spinach and Spinach2 were PCR-amplified with primers containing the EagI restriction sites on both the 5′ and 3′ ends of the Spinach sequence.
Whole-Cell Fluorescence Measurements of E. coli: BL21 cells were transformed to harbor either pET28c-tRNA-Spinach or pET28c-tRNA-Spinach2, and grown in Luria broth with 100 μg/ml kanamycin to OD600 0.4 at room temperature. The cells were then induced with addition of 1 mM IPTG for 2 h at room temperature. After induction, cells were normalized for cell density and split into two aliquots. One aliquot per sample was incubated at room temperature, and the other was incubated for 20 min at 37° C. Cells were then measured for total fluorescence using a Tecan Safirell plate reader with 460±10 nm excitation and emission was recorded at 510±10 nm. Data shown represent mean and s.e.m. values for three independent experiments.

[2] = Folding assay (fraction of RNA folded, DFHBI); type: physicochemical
Description: Folding Assay: The folding assay involves measurement of fluorescence under two conditions, one in which RNA is in excess relative to DFHBI, and one in which the DFHBI is in excess relative to RNA. As Spinach and DFHBI form a 1:1 stoichiometric complex, the maximum amount of complex that can be formed is determined by the limiting component. In the first condition, the fluorescence was determined by incubation of 0.1 μM DFHBI and 100-fold excess (10 μM) Spinach. This value was used to define the fluorescence of 0.1 μM Spinach-DFHBI complex. It was assumed that even if nearly all Spinach is misfolded or unfolded, there will be enough properly folded Spinach to stoichiometrically bind 0.1 μM DFHBI. This was confirmed by measuring fluorescence after doubling the RNA to 20 μM, which caused no increase in fluorescence. In the second condition, the fluorescence obtained using 10 μM DFHBI and 0.1 μM Spinach was measured. In theory, up to 0.1 μM Spinach-DFHBI can form if all the Spinach is folded. However, if a portion of Spinach is unfolded, the fluorescence will be proportionately less than the fluorescence of 0.1 μM Spinach-DFHBI. Thus, this approach can reveal the fraction of Spinach that is folded under diverse conditions.
Fluorescence was measured for each RNA under the following conditions: (i) 0.1 μM RNA and 10 μM DFHBI, and (ii) 0.1 μM DFHBI and 10 μM RNA. For each condition, the signal from DFHBI without RNA was subtracted from each signal. Fluorescence was measured in 20 mM HEPES pH 7.4, 100 mM KCl and 1 mM MgCl2 at the designated temperature. Fluorescence measurements were performed using a PerkinElmer LS-55 fluorescence spectrometer using the following instrument parameters: excitation wavelength, 460 nm; emission wavelength, 501 nm; slit widths, 10 nm. Signal from the first condition (limiting RNA) was divided by the signal from the second condition (limiting dye) to determine the fraction folded.

[3] = In vitro fluorescence (brightness) of Spinach RNAs, mutants and flanked/fused constructs with DFHBI; type: biochemical; details: for fold brighter than the same construct fused to Spinach: in vitro
Excerpt: Preparation and Analysis of Spinach and Spinach Mutants: RNAs were created by using the appropriate single-stranded DNA templates (Integrated DNA Technologies) and PCR amplification using primers that included a 5′ T7 promoter sequence to generate double-stranded DNA templates. PCR products were then purified with PCR purification columns (Qiagen) and used as templates for in vitro T7 transcription reactions (Epicentre) as described previously (Paige et al., “RNA mimics of green fluorescent protein,” Science 333: 642-646 (2011), which is hereby incorporated by reference in its entirety). RNA was purified using ammonium acetate precipitation, and quantified using both absorbance values and the Riboquant Assay kit (BD Biosciences). Photophysical characterization of Spinach2 was carried out as previously described (Paige et al., “RNA mimics of green fluorescent protein,” Science 333: 642-646 (2011), which is hereby incorporated by reference in its entirety).
Preparation and In Vitro Analysis of Flanked Spinach and Spinach2 Constructs: Spinach and Spinach2 constructs flanked on either side by 50 base pairs were generated by PCR. For Spinach, the following primers were used:
The 50-base-pair sequences were taken from the human β-actin 3′ untranslated region. Both forward primers encode the T7 RNA polymerase promoter for in vitro transcription. 5S-Spinach and 5S-Spinach2 were amplified by PCR from pAV-5S-Spinach and pAV-5S-Spinach2, respectively, using the following primers: […]
PCR products were used as templates for in vitro transcription by Ampliscribe T7 RNA polymerase as previously described (Paige et al., “RNA mimics of green fluorescent protein,” Science 333: 642-646 (2011), which is hereby incorporated by reference in its entirety). Fluorescence measurements were recorded for 0.1 μM RNA in the presence of 10 μM DFHBI in buffer composed of 20 mM HEPES pH 7.4, 100 mM KCl and […] as described above.
Next, systematic mutagenesis was carried out to identify thermostable Spinach mutants with improved folding. Because elevated G+C content can lead to stable misfolded structures (Kiliszek et al., “Crystal Structures of CGG RNA Repeats with Implications for Fragile X-Associated Tremor Attaxia Syndrome,” Nuc. Acids Res. 39:7308-7315 (2011); Sobczak et al., “RNA Structure of Trinucleotide Repeats Associated with Human Neurological Diseases,” Nuc. Acids Res. 31:5469-5482 (2003), each of which is hereby incorporated by reference in its entirety), it was reasoned that decreasing the overall G+C content could promote proper folding. Scanning mutagenesis was carried out, mutating every […] and cytosine to adenosine or uracil, respectively. In regions where G and C residues were predicted to form a base pair, both residues were mutated to A and U, to maintain the complementarity. Each of these 35 mutants was synthesized in vitro, and the fraction folded was measured at 25° C. and 42° C. Fluorescence signals that were equal to or greater than Spinach at 25° C. indicated equal or greater percent folded. A higher percentage signal at 42° C. indicated improved thermostability relative to Spinach.

[4] = Magnesium dependence of aptamer fluorescence; type: physicochemical
Description: To measure magnesium dependence 1 μM RNA was incubated with 10 μM 1T in 40 mM HEPES pH 7.4, 100 mM KCl buffer with different concentrations of MgCl2 and then fluorescence emission was measured on a plate reader.

[5] = Thermostability measurements of Spinach RNAs with DFHBI; type: physicochemical; details: fluorescence of RNA-DFHBI complex in vitro, 20-60 °C; ±s.e.m.
Description: Thermostability Measurements: Spinach or Spinach2 (1 μM) was incubated in 20 mM HEPES pH 7.4, 100 mM KCl, 1 mM MgCl2 and 10 μM DFHBI. Fluorescence values were recorded in 1° C. increments from 20° C. to 60° C., with a 5-min incubation at each temperature to allow for equilibration. Fluorescence measurements were performed using a PerkinElmer LS-55 fluorescence spectrometer using the following instrument parameters: excitation wavelength, 460 nm; emission wavelength, 501 nm; slit widths, 10 nm. Curves were fitted using the Boltzmann sigmoidal equation in GraphPad Prism 5 software. Values presented are mean and s.e.m. from three independent measurements.

B1: tdBroccoli: dBroccoli in tRNA scaffold, SEQ ID NO: 40 (nucleic acid)
chain: GCCCGGATAGCTCAGTCGGTAGAGCAGCGGAGACGGTCGGGTCCATCTGAGACGGTCGGGTCCAGATATTCGTATCTGTCGAGTAGAGTGTGGGCTCAGATGTCGAGTAGAGTGTGGGCTCCGCGGGTCCAGGGTTCAAGTCCCTGTTCGGGCGCCA
modifications: tdBroccoli
- brighter than tBroccoli (mean fluorescence intensity of the green population) (HEK293T cells): 70%
- fold more fluorescent than tBroccoli [1]: ~1.8 fold

B2: Spinach2: RNA aptamer SEQ ID NO: 2; Spinach1.2 variant containing all six mutations (nucleic acid)
chain: GAUGUAACUGAAUGAAAUGGUGAAGGACGGGUCCAGUAGGCUGCUUCGGCAGCCUACUUGUUGAGUAGAGUGUGAGCUCCGUAACUAGUUACAUC
modifications: listed as RNA, chemistry not given here
notes: Spinach1.2 variant containing all six mutations
- fold brighter than Spinach in Escherichia coli (E. coli; 25 °C): 1.4 fold
- fold brighter than Spinach in Escherichia coli (E. coli; 37 °C): 2.1 fold
- percentage folded ([2]; 25 °C, in the presence of the tRNA (tRNA^Lys3 scaffold)): 80±6.1%
- percentage folded ([2]; 25 °C, no tRNA scaffold): 58±4.8%
- percentage folded ([2]; 37 °C, in the presence of the tRNA (tRNA^Lys3 scaffold)): 60±5.4%
- percentage folded ([2]; 37 °C, no tRNA scaffold): 37±3.3%
- fluorescence retained when fused to the CGG repeat-containing RNA [3]: 80%
- fold brighter than Spinach in vitro ([3]; 25 °C): 1.8 fold
- fold brighter than Spinach in vitro ([3]; 37 °C): 2.8 fold
- brightness of flanked RNA relative to the same aptamer alone ([3]; flanked by 50 nt of RNA on both 5′ and 3′ ends, 0.1 μM RNA): 90%
- brightness of flanked Spinach2 versus flanked Spinach ([3]; flanked by 50 nt of RNA on both ends): tenfold brighter than flanked Spinach
- fold brighter than the same construct fused to Spinach ([3]; fusion with 5S RNA): 3 fold
- fold brighter than the same construct fused to Spinach ([3]; fusion with 7SK RNA): 6 fold
- fold brighter than the same construct fused to Spinach ([3]; fusion with (CGG)60 RNA): 20 fold
- fluorescence retained by tagged Spinach2 relative to Spinach2 alone ([3]; fusions with 5S, 7SK and (CGG)60 RNA, all cases): more than 70%
- Percent Brightness (at 42° C.) ([3]; percent of signal remaining at 42 °C for a given mutant): 41%
- Relative Brightness (at 25° C.) ([3]; relative to Spinach, 25 °C): 1.8
- percent of maximal fluorescence in magnesium-free buffer ([4]; 1 μM RNA, 10 μM DFHBI-1T): 11%
- magnesium concentration giving maximal fluorescence ([4]; MgCl2 titration): ~1 mM
- percent of maximal fluorescence at ~300 μM magnesium ([4]; MgCl2 titration): 50%
- melting temperature (Tm) [5]: 38±0.4 °C
